Measured values from the nanobody polyreactivity screen of Harvey et al. (2022).

Assay: yeast display, Sf9 membrane polyspecificity reagent, FACS + sequencing; frameworks hold sequencing errors
How it was run: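 A nanobody's polyreactivity label depends on the gate it was sorted from. Yeast display cells were stained with 10% biotinylated, detergent-solubilized Sf9 membrane reagent for 1 hour at 4 °C, enriched on streptavidin microbeads and sorted by FACS. The low and high (top ~1%) gates were set on anti-HA fluorescence for expression and streptavidin fluorescence for reagent binding.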

## QVQLVESGGGLVQAGGSLRLSCAASGSIFTVYAMGWYRQAPGKESELVAGITRRGSTYYADSVKGRFTISRDNAKNTFYLLMNRLKPEDTAVYYCAASRWVLESSGRVNWYDYWGQVTQVTVSS
  polyreactivity (PSR sort gate): low polyreactivity

## QVQLVESGGGLVQAGGSLRLSCAASGSIFTWNGMGWYRQAPGKERELVAAISGSGGTTYADSVKGRFTISRDNAKNTVYLQMNSLKPEDTAVYYCARRVWVRDYPFGYARYGYWGQGTQVTVSS
  polyreactivity (PSR sort gate): low polyreactivity

## QVQLVESGGGLVQAGGSLRLSCAASGSIFTWYVMGWYRQAPGKERELVAAITSGGRTYYADSVKGRFTISRDNAKKTVYLQMNSLKPEDTAVYYCAADSIGRLWGYGYWGQGTQVTVSS
  polyreactivity (PSR sort gate): high polyreactivity

## QVQLVESGGGLVQAGGSLRLSCAASGSIFTYNAMGWYRQAPGKERELVAAISTSGGSTYYADSVKGRFTISRDNAKNTVYLQMNSLKPEDTAVYYCAAEYYVYPFWYGYWGQGTQVTVSS
  polyreactivity (PSR sort gate): high polyreactivity

## QVQLVESGGGLVQAGGSLRLSCAASGSIFTYYAMGRYRQAPGKDRQLVAAISSNGGSTYYADSVKGRFTISRDNAKNTVYLQMNSLKPEDTAVYYCATVVNTWYQNGYEYWGQGTQVTVSS
  polyreactivity (PSR sort gate): low polyreactivity

## QVQLVESGGGLVQAGGSLRLSCAASGSIFTYYAMGWYRQAPGKEMELVARIDWNGGSTRYADSVKGRFTISRDNAKNTVYLQMNSLKPEYTAVYYCAADWDYAPYFDPDLLDYWGQGTQVTVSS
  polyreactivity (PSR sort gate): low polyreactivity

## QVQLVESGGGLVQAGGSLRLSCAASGSIFTYYAMGWYRQAPGKERELVAAITSTGGSTYYADSVKGRFTISRDNAKNTVYLQMNSLKPEDTAVYYCATDYGYYDYWGQGTQVTVSS
  polyreactivity (PSR sort gate): low polyreactivity

## QVQLVESGGGLVQAGGSLRLSCAASGSIFTYYAMGWYRQAPGKERELVAGITRGGSTYYAESVKGRFTISRDNAKNTVYLQMNSLKPEDTAVYYCNARWVLFYTGDGQEHDYWGQGTQVTVSS
  polyreactivity (PSR sort gate): low polyreactivity

## QVQLVESGGGLVQAGGSLRLSCAASGSIFTYYDMGWYRQAPGKEREWVAGISRRGSTYYADSVKGRFTISRDNAKNTVYLQMNSLKPEDTAVYYCAADPWVGTLYPRVGYWGQGTQVTVSS
  polyreactivity (PSR sort gate): low polyreactivity

## QVQLVESGGGLVQAGGSLRLSCAASGSIFTYYTMGLYRQAPGKERELVADITGGGSSTYYADSVKGRFTISRDNAKNTVYLQMNSLKPEDTAVYYCAADKYWAQNDYWGQGTQVTVSS
  polyreactivity (PSR sort gate): low polyreactivity

## QVQLVESGGGLVQAGGSLRLSCAASGSIFTYYTMGWYRQAPGKERELVAAIRWSAGRTYYADSVKGRFTISRDNAKNTVYLQMNSLKPEDTAVYYCAAAERLRHGLKFDYWGQGTQVTVSS
  polyreactivity (PSR sort gate): high polyreactivity

## QVQLVESGGGLVQAGGSLRLSCAASGSIFVDYAMGWYRQAPGKERELVAAISWRGGSTYYADSVKGRFTISRDNAKNTVYLQMNSLKPEDTAVYYCAALTPFKYDYWGQGTKVTVSS
  polyreactivity (PSR sort gate): low polyreactivity

## QVQLVESGGGLVQAGGSLRLSCAASGSIFVFYAMGWYRQAPGKERELVAAITRSGGRTYADSVKGRFTISRDNAKNTVYLQMYSLKPEDTAVYYCNAGTYWYNGRYTRSAHDYWGQGTQVTVSS
  polyreactivity (PSR sort gate): high polyreactivity

## QVQLVESGGGLVQAGGSLRLSCAASGSIFVGHAMGWYRQAPGKERELVATISRSGGSTYYADSVKGRFTISRDNAKNTVYLQMNSLKPEDTAVYYCAKTPYRRYSYGGYTYRTYDYWGQGTQVTVSS
  polyreactivity (PSR sort gate): low polyreactivity

## QVQLVESGGGLVQAGGSLRLSCAASGSIFVGNAMGWDRQAPGKERELVATLSWSGGSTYYADSVKGRFTISRDNAKNTVDLQMNSLNPEDTAVYYCAKTPYRRYRYGGYTYRTYDYWGQGTQVTVSS
  polyreactivity (PSR sort gate): low polyreactivity

## QVQLVESGGGLVQAGGSLRLSCAASGSIFVGNAMGWSRQAPGKERELVATISRGARRKYADSVKGRFTISRDNAKNTVYLQMNSLIPEDTAVYYCNKVTSYYVFYTPYYSWGQGTQVTVSS
  polyreactivity (PSR sort gate): low polyreactivity

## QVQLVESGGGLVQAGGSLRLSCAASGSIFVGYAMGWYRQAPGKERDLVAAIDSTVSTYYADSVKGRFTISRDNAKNTVYLQMNSLKPEDTAVYYCAAYPRPDIGYTDGYVWYEFDYWGQGTQVTVSS
  polyreactivity (PSR sort gate): low polyreactivity

## QVQLVESGGGLVQAGGSLRLSCAASGSIFVGYAMGWYRQAPGKERELVAAISTRGGSTYYADSVKGRFTISRDNAKNTVYLQMNSLKPEDTAVYDCAADYLDSTYGYVYGWDDYWGQGTQVTVSS
  polyreactivity (PSR sort gate): low polyreactivity

## QVQLVESGGGLVQAGGSLRLSCAASGSIFVGYAMGWYRQAPGKERELVASITTRGGSTHYADSVKGRFTISRDNAKNTVYLQMNSLKPEDTAVYYCAADSLSNGVLQYLPGYDYWGQGTQVTVSS
  polyreactivity (PSR sort gate): low polyreactivity

## QVQLVESGGGLVQAGGSLRLSCAASGSIFVGYTMGWYRQAPGKERELVAAITSTGGSTSYADSVKGRFTISRDNAKNTVYLQMNSLKPEDTAVYYCAARGRGKTTSVAYYYWGQGTQVTVSS
  polyreactivity (PSR sort gate): high polyreactivity

## QVQLVESGGGLVQAGGSLRLSCAASGSIFVGYTMGWYRQAPGKERELVADITYNGGTTYYADSVKGRFTISRDNAKNTVYLQMNSLKPEDSAVYYCAADYYYGWFPVYYWGQGTQVTVSS
  polyreactivity (PSR sort gate): high polyreactivity

## QVQLVESGGGLVQAGGSLRLSCAASGSIFVGYVMGWYRQAPGKERELVAAISKSGSRTYYADSVKGRFTISRDNAKYTVYLQMNSLKPEDTAVYYCATAGYDADDYWGQGTQVTVSS
  polyreactivity (PSR sort gate): high polyreactivity

## QVQLVESGGGLVQAGGSLRLSCAASGSIFVHNTMGWYRQAPGKERELVAAITRSVGRTYYADSVKGRFTISRDNAKNTVYLQMNSLKPEDTAVYYCAARKNYGSRLSYEYWGQGTQVTVSS
  polyreactivity (PSR sort gate): high polyreactivity

## QVQLVESGGGLVQAGGSLRLSCAASGSIFVHYAMGWYRQAPGKERELVASISTSGGRTRYADSVKGRFTISRDNAKNTVYLQMNSLKPEDTAVYYCAALRWGRRYDYWGQGTQVTVSS
  polyreactivity (PSR sort gate): high polyreactivity

## QVQLVESGGGLVQAGGSLRLSCAASGSIFVIYAMGWYRQAPGKERELVAAISRSGGRTYYADSVKGRFTISRDNAKNTVYLQMNSLKPEDTAVYYCAAEGSTYQGAPGVYYWGQGTQVTVSS
  polyreactivity (PSR sort gate): high polyreactivity

## QVQLVESGGGLVQAGGSLRLSCAASGSIFVIYAMGWYRQAPGKERELVAAITWNGGSTFYADSVKGRFTISRDNAKNTVYLQMNSLKPEDTAVYYCNAVAVSNSGWEYDYWGQGTQVTVSS
  polyreactivity (PSR sort gate): low polyreactivity

## QVQLVESGGGLVQAGGSLRLSCAASGSIFVIYAMGWYRQAPGKERELVAAITWNGGSTVYADSVKGRFTISRDNAKNTVYLQMNSLKPEDTAVYSCNAVAVSNSGWEYDYWGQGTQVTVSS
  polyreactivity (PSR sort gate): low polyreactivity

## QVQLVESGGGLVQAGGSLRLSCAASGSIFVIYTMGWYRQAPGKERELVAVITWSTGNTYYADSVKGRFTISRDNAKNTVYLQMNSLKPEDTAVYYCAARTTSRWRSGAYYYWGQGTQVTVSS
  polyreactivity (PSR sort gate): high polyreactivity

## QVQLVESGGGLVQAGGSLRLSCAASGSIFVKNVMGWYRQAPGKERELVAAITRGGRTYYADSVKGRFTISRDNAKNTVYLQMNSLKPEDTAVYYCNAYRLSYTYGYWGQGTQVTVSS
  polyreactivity (PSR sort gate): high polyreactivity

## QVQLVESGGGLVQAGGSLRLSCAASGSIFVKYAMGWYRQAPGKERELVAAISRSGTRTYYADSVKGRFTISRDNAKNTVYLQMNSLKPEDTAVYYCAAAATTVRAYEYWGQGTQVTLSS
  polyreactivity (PSR sort gate): high polyreactivity

## QVQLVESGGGLVQAGGSLRLSCAASGSIFVLYAMGWYRQAPGKERELVAAITTGGGTNYADSVKGRFTISRDNAKNTVYLQMNSLKPEDTAVYYCNADAYGTPEFTSYAVRYDYWGQGTQVTVSS
  polyreactivity (PSR sort gate): low polyreactivity

## QVQLVESGGGLVQAGGSLRLSCAASGSIFVNNALGWDRQAPGKDWELVAAISSRGGSTYYADSVKGRFTISRDNAKNTVYLQMHSLKPEDTAVYYCAAEYDGPYYSFYPEQRYYWGQGNQVTVSS
  polyreactivity (PSR sort gate): low polyreactivity

## QVQLVESGGGLVQAGGSLRLSCAASGSIFVNNAMGWYRQAPGKERELVAAIRRSGGNTYYADSVKGRFTISRDNAKNTVYLQLNSLKPEDTAVYYCNVVRRSDSIRAKSRDYWGQGTQVTVSS
  polyreactivity (PSR sort gate): high polyreactivity

## QVQLVESGGGLVQAGGSLRLSCAASGSIFVNNAMGWYRQAPGKERELVAAISRSGTRTYYADSVKGRFTISRDNAKNTVYLQMNSLKPEDTAVYYCAVDYYYRMDYWGQGTQVTVSS
  polyreactivity (PSR sort gate): high polyreactivity

## QVQLVESGGGLVQAGGSLRLSCAASGSIFVNNAMGWYRQAPGKERELVAAISSRSSRTFYADSVKGRFTISRDNAKISVYFHMNSLKPVDTGVYYWAVKKRSPHGDYCGQGTQVTVSS
  polyreactivity (PSR sort gate): high polyreactivity

## QVQLVESGGGLVQAGGSLRLSCAASGSIFVNNAMGWYRQAPGKERELVAAISSRSSRTFYADSVKGRFTISRDNAKNTVYLQMNSLKPDDNAVFYCAVNNRAPDGEYWGLGTQVTVSS
  polyreactivity (PSR sort gate): high polyreactivity

## QVQLVESGGGLVQAGGSLRLSCAASGSIFVNNAMGWYRQAPGKERELVAAISSRSSRTFYADSVKWRFTISRDNAKNTVYLQMNCLKPEDTAVYSCAVKKRAPDGDYWGQGTQVTVSS
  polyreactivity (PSR sort gate): high polyreactivity

## QVQLVESGGGLVQAGGSLRLSCAASGSIFVNYAMGWYRQAPGKERELVAAISGRGGSTYYADSVKGRFTISRDNAKNTVYLQMNSLKPEDTAVFYCARYGYYGHDWGQGTQVTVSS
  polyreactivity (PSR sort gate): high polyreactivity

## QVQLVESGGGLVQAGGSLRLSCAASGSIFVNYAMGWYRQAPGKERELVAAISTGGGRTFYADSVKGRFTISRDNAKNTVYLQMNSLKPEDTAVYYCNNLGRTEYDYWGQGTQVTVSS
  polyreactivity (PSR sort gate): high polyreactivity

## QVQLVESGGGLVQAGGSLRLSCAASGSIFVPNAMGWYRQAPGKERELVAAISGIGGSTSYADSVKGRFTISRDNAKNTVYLQMNSLKPEDTAVYYCARADKLHTRGWGRWGSGSYSWGQGTQVTVSS
  polyreactivity (PSR sort gate): low polyreactivity

## QVQLVESGGGLVQAGGSLRLSCAASGSIFVPYAMGWYIQAPGKERELVAAISSRGGSTYYADSVKGRFTISRDNAKNTVYLQMNSLKPEDTAVYYCNTDISRNYYWALYGYWGQGTQVTVSS
  polyreactivity (PSR sort gate): low polyreactivity

## QVQLVESGGGLVQAGGSLRLSCAASGSIFVPYAMGWYRQAPGKERELVAAINHGGGRTYADSVKGRFTISRDNAKNTVYLQMNSLKPEDTAVYYCAADGAHKIGYYRYYYWGQGTQVTVSS
  polyreactivity (PSR sort gate): low polyreactivity

## QVQLVESGGGLVQAGGSLRLSCAASGSIFVPYAMGWYRQAPGKERELVAVIRYRGGTTYYADSVKGRFTLSRDNAKNTVYLQMNSLKPEDTAVYYCEASARRYPPAAGVPYRYDYWGQGTQVTVSS
  polyreactivity (PSR sort gate): high polyreactivity
